From patent EP1073891B1, “METHOD OF PREDICTING RECEPTOR MODULATING ACTIVITY” (Duke University, priority 1998, dated 1999)

Key:
[1] = biological target: T1, ERα (Homo sapiens, UniProt P03372); test: Phage ELISA / fingerprint on ER immobilized on biotinylated ERE (Examples 2.3-2.5); format: binding; design: purchased PanVera Corporation, Madison, WI; key to binding activity, ERα and buffer / binding activity, ERα and estradiol / binding activity, ERα and tamoxifen / binding of peptide, Class Specific Fingerprint on ERα: semiquantitative scale of 0 to 7+; 1+: semiquantitative scale of 0 to 7+; 2+: semiquantitative scale of 0 to 7+; 3+: semiquantitative scale of 0 to 7+; 4+: semiquantitative scale of 0 to 7+; 5+: semiquantitative scale of 0 to 7+; 6+: semiquantitative scale of 0 to 7+; semiquantitative scale of 0 to 7+; conditions: for binding activity, ERα and estradiol: ERα and estradiol (1 µM); for binding activity, ERα and tamoxifen: ERα and tamoxifen (4-OH tamoxifen, 1 µM)
T1 sequence (P03372 1-595): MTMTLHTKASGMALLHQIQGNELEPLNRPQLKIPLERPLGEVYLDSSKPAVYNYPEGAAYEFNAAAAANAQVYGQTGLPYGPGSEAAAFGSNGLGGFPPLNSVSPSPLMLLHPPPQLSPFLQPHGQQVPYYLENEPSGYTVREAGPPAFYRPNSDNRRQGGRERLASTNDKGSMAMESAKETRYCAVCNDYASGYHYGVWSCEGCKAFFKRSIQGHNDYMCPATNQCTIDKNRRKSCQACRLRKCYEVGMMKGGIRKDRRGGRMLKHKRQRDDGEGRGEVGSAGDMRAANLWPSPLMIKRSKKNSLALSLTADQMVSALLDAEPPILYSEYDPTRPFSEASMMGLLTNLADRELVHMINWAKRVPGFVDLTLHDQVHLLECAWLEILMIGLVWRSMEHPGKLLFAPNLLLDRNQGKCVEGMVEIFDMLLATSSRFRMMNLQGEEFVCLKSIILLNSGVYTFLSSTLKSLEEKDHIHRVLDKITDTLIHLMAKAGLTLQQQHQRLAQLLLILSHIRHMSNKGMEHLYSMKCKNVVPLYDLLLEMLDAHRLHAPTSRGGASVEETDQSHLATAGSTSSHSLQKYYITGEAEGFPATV

[2] = biological target: ERβ (Homo sapiens, UniProt Q92731); test: as above; format: binding; design: purchased PanVera Corporation, Madison, WI; key: semiquantitative scale of 0 to 7+; 1+: semiquantitative scale of 0 to 7+; 2+: semiquantitative scale of 0 to 7+; 3+: semiquantitative scale of 0 to 7+; 4+: semiquantitative scale of 0 to 7+; 5+: semiquantitative scale of 0 to 7+; 6+: semiquantitative scale of 0 to 7+; semiquantitative scale of 0 to 7+; conditions: for binding activity, ERβ and Estradiol: ERβ and Estradiol (1 µM); for binding activity, ERβ and tamoxifen: ERβ and tamoxifen (4-OH tamoxifen, 1 µM)
Sequence of ERβ (Q92731 whole entry): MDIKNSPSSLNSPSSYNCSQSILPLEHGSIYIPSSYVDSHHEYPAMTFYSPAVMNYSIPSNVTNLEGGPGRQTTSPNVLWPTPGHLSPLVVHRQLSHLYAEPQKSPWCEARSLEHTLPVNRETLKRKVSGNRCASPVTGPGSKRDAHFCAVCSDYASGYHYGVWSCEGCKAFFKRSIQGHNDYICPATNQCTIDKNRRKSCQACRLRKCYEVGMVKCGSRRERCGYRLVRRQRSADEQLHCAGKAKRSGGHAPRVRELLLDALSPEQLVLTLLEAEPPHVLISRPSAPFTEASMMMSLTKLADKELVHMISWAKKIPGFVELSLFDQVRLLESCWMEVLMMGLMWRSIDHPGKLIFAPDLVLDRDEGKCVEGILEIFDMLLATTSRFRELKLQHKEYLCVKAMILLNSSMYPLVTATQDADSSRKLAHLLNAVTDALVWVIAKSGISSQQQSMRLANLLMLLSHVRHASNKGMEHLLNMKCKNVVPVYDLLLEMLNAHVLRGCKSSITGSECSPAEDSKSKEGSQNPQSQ

| binding activity, ERα and buffer [1] | binding activity, ERα and estradiol [1] | binding activity, ERα and tamoxifen [1] | binding activity, ERβ and Estradiol [2] | binding activity, ERβ and buffer [2] | binding activity, ERβ and tamoxifen [2] | Sequence |
| --- | --- | --- | --- | --- | --- | --- |
| 2+ | 2+ | 2+ | 7+ | 7+ | 7+ | SSARPWWLQFEGSSR [Peptide 7t-β] |
| 1+ | 2+ | 2+ | 7+ | 7+ | 7+ | SSDLHRDCLGVWCLSR [Peptide 17t-β] |
| 4+ | 4+ | 6+ | 6+ | 6+ | 7+ | SSDLYSQMREFFQINLSR [Peptide 23t-β] |
| 4+ | 6+ | 4+ | 7+ | 5+ | 2+ | SSDTRSRLYELLSSSYTSR [Peptide 5E-β] |
| 5+ | 3+ | 3+ | 2+ | 6+ | 2+ | SSGLPPNFERMLKSR [Peptide 6b-β] |
| 4+ | 3+ | 6+ | 2+ | 4+ | 7+ | SSGPFYVGGMLWPADCLSR [Peptide 10t-β] |
| 2+ | 4+ | 3+ | 7+ | 7+ | 2+ | SSGPWLMHYLGGGSR [Peptide 7b-β] |
| 5+ | 4+ | 5+ | 6+ | 2+ | 1+ | SSGSSAGRLMMLLQDGVSR [Peptide 13E-β] |
| 6+ | 6+ | 5+ | 7+ | 4+ |  | SSHCHTRLCSLLTSR [Peptide 15E-β] |
| 2+ | 2+ | 2+ | 7+ | 4+ | 1+ | SSIKDFPNLISLLSR [Peptide 12E-β] |
| 3+ | 4+ |  | 7+ | 4+ | 1+ | SSILERLLGGGSAETV [Peptide 9E-β] |
| 5+ | 4+ | 4+ | 6+ | 7+ | 7+ | SSIPPRSWWLSQLSR [Peptide 19b-β] |
| 3+ | 4+ | 6+ | 4+ | 5+ | 7+ | SSISTYHMGEWFYAMLSSR [Peptide 22t-β] |
| 6+ | 7+ | 3+ | 7+ | 7+ | 3+ | SSKLYCLLDESYCSR [Peptide 21b-β] |
| 5+ | 6+ | 5+ | 7+ | 4+ | 1+ | SSLKCLLNSNFCSR [Peptide 18E-β] |
| 4+ | 5+ | 3+ | 7+ | 4+ | 2+ | SSLKCLLQSSPQKQPFCSR [Peptide 19E-β] |
| 6+ | 6+ | 5+ | 7+ | 5+ | 2+ | SSLQAGSWLMHYLRGGDSR [Peptide 23E-β] |
| 2+ | 2+ | 7+ | 2+ | 3+ | 7+ | SSPGSREWFKDMLSR [Peptide 14t-β] |
| 4+ | 6+ | 3+ | 7+ | 5+ | 1+ | SSPTGHRLLESLLLNSNSR [Peptide 8E-β] |
| 2+ | 2+ | 2+ | 5+ | 7+ | 5+ | SSQEEWLLPWRLASR [Peptide 8t-β] |
| 2+ | 2+ | 3+ | 7+ | 7+ | 7+ | SSQVWPGPWRLVESR [Peptide 14b-β] |
| 5+ | 4+ | 4+ | 7+ | 5+ | 2+ | SSQWQAPWWYIDASR [Peptide 32E-β] |
| 4+ | 5+ | 3+ | 7+ | 5+ | 2+ | SSRCSSLLCEMLIQTKESR [Peptide 22E-β] |
| 5+ | 7+ | 5+ | 7+ | 5+ | 3+ | SSRGLLWDLLTKDSR [Peptide 1E-β] |
| 3+ | 6+ | 3+ | 7+ | 6+ | 2+ | SSRLLCLLDAGQCSR [Peptide 16E-β] |
| 3+ | 3+ | 6+ | 3+ | 3+ | 7+ | SSRLVPHSFWLDGLMHGSR [Peptide 21t-β] |
| 3+ | 3+ | 2+ | 7+ | 5+ | 2+ | SSRPSFTIPWWFDDPSRSR [Peptide 33E-β] |
| 5+ | 5+ | 4+ | 7+ | 3+ | 2+ | SSRTLLEHYLLGGSR [Peptide 20E-β] |
| 4+ | 6+ | 3+ | 7+ | 6+ | 2+ | SSRTLYCHLTSSNPEWCSR [Peptide 27E-β] |

| Sequence | binding activity, ERα and buffer [1] | binding activity, ERα and estradiol [1] | binding activity, ERα and tamoxifen [1] | binding activity, ERβ and Estradiol [2] | binding activity, ERβ and buffer [2] | binding activity, ERβ and tamoxifen [2] |
| --- | --- | --- | --- | --- | --- | --- |
| SSLDLSQFPMTASFLRESR [Peptide 35E-β] | 2+ | 2+ | 2+ | 6+ | 2+ | 1+ |
